Experimental data from PMC10775387 (Research Square, 2023).

Biological target: T1, EBOV GP1,2 stalk–MPER epitope peptide (aa 626–640) (Ebola virus (EBOV), UniProt Q05320)
T1 chain: IIHDFVDKTLPDQGD
Test: crystal structure
Settings: both partners purified

B1: 3A6 Fab (Fab, V domains shown)
VH: EVQLLESGGGLVKPGGSLRLSCAASGFTFNEYMMNWVRQPPGKGLEWVSSISGTSTYINYADSVKGRFTISRDNAKNSLYLQMNSLRSDDTAMYYCARGSTGGYWGQGTLITVSS
VL: DIVMTQTPLSSAVTLGQPASISCRSSQRLVHSDGNTYLSWLHQRPGQPPRLLIYKVSLRFSGVPDRFSGSGAGTDFTLKISRVEAEDVGIYYCMQATQFPLTFGGGTKVEIK
  binding result: binds
